Target: T1, Strep-tagged MinD (B. subtilis 168, UniProt Q01464 1-268)
T1 construct: MinD ATPase of B. subtilis 168, PCR fragment in a pQE-30 vector with the His6-tag replaced by the strep-tag; Pre-labelled with Strep-Tactin conjugated to horse radish peroxidase for the far-Western
T1 sequence (looked up): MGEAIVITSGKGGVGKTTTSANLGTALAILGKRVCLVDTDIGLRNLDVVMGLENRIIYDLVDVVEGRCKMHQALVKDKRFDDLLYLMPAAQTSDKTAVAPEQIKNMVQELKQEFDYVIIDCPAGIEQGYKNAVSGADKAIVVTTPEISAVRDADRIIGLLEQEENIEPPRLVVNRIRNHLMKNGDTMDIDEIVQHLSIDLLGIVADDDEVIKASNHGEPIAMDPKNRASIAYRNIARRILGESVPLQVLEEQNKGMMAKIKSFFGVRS
Experiment: far-Western; PtkA, MinC and TkmA separated by 12% SDS-PAGE, transferred to nitrocellulose and renatured; probed with Strep-tagged MinD labelled with Strep-Tactin-HRP in TBS-T (50 mM Tris pH 7.5, 150 mM NaCl, 0.05% Tween 20) with 1% BSA; AEC staining
Conditions: both partners purified

B1: MinC (purified) (natural protein, B. subtilis 168, UniProt Q01463 1-226, looked up)
chain: MKTKKQQYVTIKGTKNGLTLHLDDACSFDELLDGLQNMLSIEQYTDGKGQKISVHVKLGNRFLYKEQEEQLTELIASKKDLFVHSIDSEVITKKEAQQIREEAEIISVSKIVRSGQVLQVKGDLLLIGDVNPGGTVRAGGNIFVLGSLKGIAHAGFNGNNQAVIAASEMLPTQLRINHVLNRSPDHIQKGNEMECAYLDTDGNMVIERLQHLAHLRPDLTRLEGGM
notes: MinC of B. subtilis 168
- binding result: binds

From PMC4205851, “Protein-tyrosine phosphorylation interaction network in Bacillus subtilis reveals new substrates, kinase activators and kinase cross-talk” (Frontiers in Microbiology, 2014)
